Where two headings read alike, the source gives them in different places.
Legend:
[1] = molecular target: T1, parental receptor binding domain (RBD) protein (amino acids 319 to 541 of the spike protein) with c-terminal … (SARS-CoV-2 (Wuhan-Hu-1), UniProt P0DTC2 319-541); experiment: ELISA, RBD coated, IgG detected with anti-human Fc-HRP
[2] = molecular target: recombinant stabilized spike protein derived from the beta strain (formerly described as the South A (SARS-CoV-2 (B.1.351), UniProt P0DTC2 14-1208))
[3] = molecular target: T2, SARS CoV-2 spike trimer protein from the parental Wuhan-Hu-1 isolate (extracellular domain, furin-cl (SARS-CoV-2 (Wuhan-Hu-1)))
[4] = molecular target: T3, SARS-CoV-2 (Wuhan-Hu-1) wild-type (WT) spike protein carried on pseudotyped virus or on live wild-type virus (SARS-CoV-2 (Wuhan-Hu-1), UniProt P0DTC2 14-1273); experiment: cell-based or functional assay
[5] = molecular target: T3, SARS-CoV-2 (Wuhan-Hu-1) wild-type (WT) …; experiment: cell-based or functional assay; remark: listed apart in the source
[6] = molecular target: T2, SARS CoV-2 spike trimer protein from …; remark: listed apart in the source
[7] = molecular target: T1, parental receptor binding domain (RBD) …
[8] = molecular target: T4, SARS-CoV-2 B.1.351 ('SA', beta) variant spike protein on pseudotyped virus or live virus (SARS-CoV-2 (B.1.351), UniProt P0DTC2 14-1273); experiment: cell-based or functional assay
[9] = molecular target: SARS-CoV-2 spike protein variant 484K on pseudotyped virus (SARS-CoV-2, UniProt P0DTC2 14-1273); experiment: cell-based or functional assay
[10] = molecular target: T4, SARS-CoV-2 B.1.351 ('SA', beta) variant …; experiment: cell-based or functional assay; remark: listed apart in the source
[11] = molecular target: T2, SARS CoV-2 spike trimer protein from …; experiment: ELISA, spike protein coated, IgG detected with anti-human Fc-HRP
[12] = molecular target: S protein of a SARS-CoV-2 delta lineage virus on pseudotyped virus (SARS-CoV-2 (delta lineage)); experiment: cell-based or functional assay

B1: R2G3 ultralong CDR3 chimeric bovine-human IgG1 antibody (antibody)
VH: QVQLRESGPSLVKPSQTLSLTCAASGFSLSDKAVGWVRRAPGKALEWLGSIDTGGSTGYNPGLKSRLSITKDNSKSQVSLSISSVTSEDSATYYCATVHQKTAEGDKTCPDGYEHTCGCIGGCGCKRSACIGALCCQASLGGWLSDGETYTYEFHVDTWGQGLVVTVSS
VL: QAVLNQPSSVSGSLGQRVSITCSGSSSNVGNGYVSWYQLIPGSAPRTLIYGDTSRASGVPDRFSGSRSGNTATLTISSLQAEDEADYFCASAEDSSSNAVFGSGTTLTVL
EC50 [1]: 0.056 nM
EC50 (read off the curve) [2]: ~0.2 nM
EC50 (read off the curve) [3]: ~0.4 nM
live SARS CoV-2 neutralization, ng/mL (quantity not given) [4]: 0.5 ng/mL
pseudovirus neutralization, ng/mL (quantity not given) [4]: 0.2 ng/mL
pseudovirus neutralization IC50 (luciferase assay) [5]: > 1 ng/mL
EC50 (read off the curve) [6]: ~0.01 nM
EC50 (read off the curve) [7]: ~0.02 nM

B2: SKM ultralong CDR3 chimeric bovine-human IgG1 antibody (antibody)
VH: QVQLRESGPSLVKPSQTLSLTCTASGFSLSDKAVGWVRQAPGKALEWLGSIDTGGNTGYNPGLKSRLSITKDNSKSQVSLSVSSVTTEDSATYYCTTVHQETLRSCPDGYIDNSGCTADWGCAALDCWRRRFGYHSTDPSHYTGATYIYTYSLHIDAWGQGLLVTVSS
VL: QAVLNQPSSVSGSLGQRVSITCSGSSSNVGNGYVSWYQLIPGSAPRTLIYGDTSRASGVPDRFSGSRSGNTATLTISSLQAEDEADYFCASAEDSSSNAVFGSGTTLTVL
pseudovirus neutralization, ng/mL (quantity not given) [8]: > 1000 ng/mL
pseudovirus luciferase assay EC50 [9]: > 1 nM
pseudovirus luciferase assay EC50 [10]: > 1 nM

B3: RBD F4 chimeric bovine-human IgG1 antibody (antibody, V domains shown)
VH: QVQLRESGPSLVKPSQTLSLTCTVSGFSLSSNGVVWVRQAPGKALEWLGDICSTGGTSFNPALKSRLSIAKDNSKSQVSLSVRSVTPEDTATYYCARSRGYDCYANVDALDYVDAWGQGLLVTVSS
VL: QAVLNQPSSVSGSLGQRVSITCSGSSSNVGNGYVSWYQLIPGSAPRTLIYGDTSRASGVPDRFSGSRSGNTATLTISSLQAEDEADYFCASAEDSSSNAVFGSGTTLTVL
EC50 [1]: 0.03 nM
EC50 [11]: 0.03 nM

B4: R2B1 chimeric bovine-human IgG1 antibody (antibody, V domains shown)
VH: QVQLRESGPSLVKPSQTLSLTCTVSGFSLSDNNVGWVRQAPGKALEWLGVMHNDGNKGYNPALKSRLSITKDSSKSQVSLSLSSVTSEDTATYYCTRDNARCDSWTYDSCDTWYRNSWHVDAWGQGLLVTVSS
VL: QAVLNQPSSVSGSLGQRVSITCSGSSSNVGNGYVSWYQLIPGSAPRTLIYGDTSRASGVPDRFSGSRSGNTATLTISSLQAEDEADYFCASAEDSSSNAVFGSGTTLTVL
EC50 [1]: 0.52 nM
EC50 [11]: 0.37 nM

B5: R2D6 chimeric bovine-human IgG1 antibody (antibody, V domains shown)
VH: QVQLRESGPSLVKPSQTLSLTCTTSGFSLSSYAVGWVRQAPGKALEWVGDIDYVGNTDYNPALKSRLSITKDNSKSQVSLVVSSVTAEDAATYYCAKYSGAYAYAACNYYGWRCAWESYIDAWGQGLLVTVSS
VL: QAVLNQPSSVSGSLGQRVSITCSGSSSNVGNGYVSWYQLIPGSAPRTLIYGDTSRASGVPDRFSGSRSGNTATLTISSLQAEDEADYFCASAEDSSSNAVFGSGTTLTVL
EC50 [1]: 0.57 nM
EC50 [11]: 0.41 nM

B6: R2D9 ultralong CDR3 chimeric bovine-human IgG1 antibody (antibody)
VH: QVQLRESGPSLVKPSQTLSLTCTASGFSLSDKAIGWVRQAPGKALEWLGSIDTRGNTGYNPGLKSRLSITKDSSKSQVSLSVNSVTTEDSATYLCAIVQQITHKTCPNGYNWFDRCCSWDGTCGDGCCSNRAWPSGNGRADSSIGETYGYEFHVAAWGQGLLVTVSS
VL: QAVLNQPSSVSGSLGQRVSITCSGSSSNVGNGYVSWYQLIPGSAPRTLIYGDTSRASGVPDRFSGSRSGNTATLTISSLQAEDEADYFCASAEDSSSNAVFGSGTTLTVL
pseudovirus neutralization, ng/mL (quantity not given) [12]: 0.32 ng/mL
pseudovirus neutralization, ng/mL (quantity not given) [4]: 0.26 ng/mL
pseudovirus neutralization, ng/mL (quantity not given) [8]: 0.33 ng/mL

B7: R4C1 ultralong CDR3 chimeric bovine-human IgG1 antibody (antibody)
VH: QVQLRESGPSLVKPSQTLSLTCTASGFSLSDKAVGWVRQAPGKPLEWLGSIDTAENTGYNPGLKSRLSITKDNSKSQVSLSVSSVTTEDSATYYCATVHQKTRKEKNCPDGYIYSSNTASGYDCGVWICRRVGSAFCSRTGDYTSPSEFDIYEFYVEGWGQGLLVTVSS
VL: QAVLNQPSSVSGSLGQRVSITCSGSSSNVGNGYVSWYQLIPGSAPRTLIYGDTSRASGVPDRFSGSRSGNTATLTISSLQAEDEADYFCASAEDSSSNAVFGSGTTLTVL
pseudovirus neutralization, ng/mL (quantity not given) [4]: 99.9 ng/mL
pseudovirus neutralization, ng/mL (quantity not given) [8]: 375 ng/mL

B8: SKD ultralong CDR3 chimeric bovine-human IgG1 antibody (antibody)
VH: QVQLRESGPSLVKPSQTLSLTCTASGFSLSDKAVGWVRQAPGKALEWLGSIDTGGNTGYNPGLKSRLSITKDNSKSQVSLSVSSVTTEDSATYYCTTVHQRTSEKRSCPGGSSRRYPSGASCDVSGGACACYVSNCRGVLCPTLNEIVAYTYEWHVDAWGQGLLVTVSS
VL: QAVLNQPSSVSGSLGQRVSITCSGSSSNVGNGYVSWYQLIPGSAPRTLIYGDTSRASGVPDRFSGSRSGNTATLTISSLQAEDEADYFCASAEDSSSNAVFGSGTTLTVL
pseudovirus neutralization, ng/mL (quantity not given) [8]: > 1000 ng/mL
pseudovirus luciferase assay EC50 [9]: > 1 nM
pseudovirus luciferase assay EC50 [10]: > 1 nM

B9: R2C3 (R5C1) ultralong CDR3 chimeric bovine-human IgG1 antibody (antibody)
VH: QVQLRESGPSLVKPSQTLSLTCTASGFSLSDKPVGWVRQAPGKPLEWLGSIDTAENTGYNPGLKSRLSITKDNSKSQVSLSLSSVTTEDSATYYCATVHQKTRKEKSCPDGYLYSSNTGRGYDCGVWTCRRVGGEFCSATGDWTSPSEEDFYEFYVDTWGQGAPVTVSS
VL: QAVLNQPSSVSGSLGQRVSITCSGSSSNVGNGYVSWYQLIPGSAPRTLIYGDTSRASGVPDRFSGSRSGNTATLTISSLQAEDEADYFCASAEDSSSNAVFGSGTTLTVL
EC50 (read off the curve) [2]: ~0.3 nM
EC50 (read off the curve) [3]: ~0.3 nM
EC50 [11]: 0.39 nM

B10: R2F12 ultralong CDR3 chimeric bovine-human IgG1 antibody (antibody)
VH: QVQLRESGPSLVKPSQTLSLTCTVSGFSLSDKAVGWVRRAPGKALEWLGSIDTGGMTGYNPGLKSRLSITKDNSKSQVSLSVNSVTTEDSATYYCATVDQKTKNACPDDFDYRCSCIGGCGCARKGCVGPLCCRSDLGGYLTDSPAYIYEWYIDLWGQGLLVTVSS
VL: QAVLNQPSSVSGSLGQRVSITCSGSSSNVGNGYVSWYQLIPGSAPRTLIYGDTSRASGVPDRFSGSRSGNTATLTISSLQAEDEADYFCASAEDSSSNAVFGSGTTLTVL
EC50 [1]: 0.085 nM
EC50 (read off the curve) [2]: ~0.2 nM
EC50 (read off the curve) [3]: ~0.3 nM
EC50 [11]: 0.05 nM
EC50 (read off the curve) [6]: ~0.02 nM
EC50 (read off the curve) [7]: ~0.03 nM

B11: SR3A3 ultralong CDR3 chimeric bovine-human IgG1 antibody (antibody)
VH: QVQLRESGPSLVKPSQTLSLTCTISGFSLSSYAVLWVRQAPGKPLEWLGSIDTAENTGYNPGLKSRLSITKDNSKSQVSLSVSSVTTEDSATYYCATVHQKTRKEKNCPDGYIYSSNITSGFDCGVWICRRVGSAFCSRTGDYTSPTELDIYEFYVEGWGQGVPVTVSS
VL: QAVLNQPSSVSGSLGQRVSITCSGSSSNVGNGYVSWYQLIPGSAPRTLIYGDTSRASGVPDRFSGSRSGNTATLTISSLQAEDEADYFCASAEDSSSNAVFGSGTTLTVL
binding result [1]: binds
EC50 [11]: 0.037 nM

B12: RBD A2 chimeric bovine-human IgG1 antibody (antibody, V domains shown)
VH: QVQLRESGPSLVKPLQILSLTCTVSGFSLSSNGVVWVRQAPGKALEWLGDICSTGGTSFNPALKSRLSIAKDNSKSQVSLSVRSVTPEDTATYYCARSRGYDCYANVDALDYVDAWGQGLLVTVSS
VL: QAVLNQPSSVSGSLGQRVSITCSGSSSNVGNGYVSWYQLIPGSAPRTLIYGDTSRASGVPDRFSGSRSGNTATLTISSLQAEDEADYFCASAEDSSSNAVFGSGTTLTVL
EC50 [1]: 0.03 nM
EC50 [11]: 0.024 nM

B13: RBD C6 chimeric bovine-human IgG1 antibody (antibody, V domains shown)
VH: QVQLRESGPSLVKPSQTLSLTCTVSGFSLSSNGVVWVRQAPGRPLEWLGDICSNGGTSFNPALKSRLSIAKDNSESQVSLTVRSVTPEDTATYYCARSRGYDCYAYVYALDTVDAWGQGLLVTVSS
VL: QAVLNQPSSVSGSLGQRVSITCSGSSSNVGNGYVSWYQLIPGSAPRTLIYGDTSRASGVPDRFSGSRSGNTATLTISSLQAEDEADYFCASAEDSSSNAVFGSGTTLTVL
EC50 [1]: 0.03 nM
EC50 [11]: 0.03 nM

Reference: patent US20240262893A1 (APPLIED BIOMEDICAL SCIENCE INSTITUTE, published 2024)
